According to article PMC8213705:

Experiments:
[1] = target: Microtubule polymerized from MAP-free bovine brain tubulin (GMPCPP- and taxol-stabilized, with biotinylated ends) (bovine) (UniProt Q6B856); assay: optical trapping (single-filament interaction forces); pure CB; perpendicular configuration, IF moved horizontally (x-direction) along the microtubule at 0.55 μm/s; 43 filament pairs
[2] = target: Microtubule polymerized from MAP-free bovine brain tubulin (GMPCPP- and taxol-stabilized, with biotinylated ends) (bovine) (UniProt Q6B856); assay: optical trapping (single-filament interaction forces); one vimentin IF and one microtubule each held between a pair of streptavidin beads; crossed perpendicularly, IF moved vertically (y-direction) at 0.55 μm/s; pure CB (1 mM EGTA, 2 mM MgCl2, 25 mM PIPES, 60 mM KCl, 2 mM sodium phosphate, pH 7.5, 0.01 mM taxol, oxygen scavenger, 20 mM DTT); 57 filament pairs
[3] = target: Microtubule polymerized from MAP-free bovine brain tubulin (GMPCPP- and taxol-stabilized, with biotinylated ends) (bovine) (UniProt Q6B856); assay: optical trapping (single-filament interaction forces); as a1 (perpendicular, vertical movement) in CB with 0.1% (w/v) Triton-X 100; 38 filament pairs
[4] = target: Microtubule polymerized from MAP-free bovine brain tubulin (GMPCPP- and taxol-stabilized, with biotinylated ends) (bovine) (UniProt Q6B856); assay: optical trapping (single-filament interaction forces); as a1 (perpendicular, vertical movement) in CB with a total of 20 mM magnesium (18 mM MgCl2 added); 36 filament pairs
[5] = target: Microtubule polymerized from MAP-free bovine brain tubulin (GMPCPP- and taxol-stabilized, with biotinylated ends) (bovine) (UniProt Q6B856); assay: optical trapping (single-filament interaction forces); pure CB; microtubule turned by 45°, IF moved vertically; 49 filament pairs

UniProt Q6B856, sequence (Q6B856 whole entry, looked up): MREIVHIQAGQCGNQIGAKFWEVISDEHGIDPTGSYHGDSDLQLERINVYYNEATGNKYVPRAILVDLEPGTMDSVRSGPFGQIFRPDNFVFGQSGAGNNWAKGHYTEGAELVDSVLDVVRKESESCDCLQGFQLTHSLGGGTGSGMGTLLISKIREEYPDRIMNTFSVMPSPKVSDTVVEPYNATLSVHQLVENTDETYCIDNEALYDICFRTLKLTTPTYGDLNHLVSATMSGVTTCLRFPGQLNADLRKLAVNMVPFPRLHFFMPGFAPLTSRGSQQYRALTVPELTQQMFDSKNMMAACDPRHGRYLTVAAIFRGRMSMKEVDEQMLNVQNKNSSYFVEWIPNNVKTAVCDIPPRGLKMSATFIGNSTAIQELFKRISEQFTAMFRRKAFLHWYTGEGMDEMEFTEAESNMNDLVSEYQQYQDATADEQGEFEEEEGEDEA

Vimentin intermediate filament, assembled from vimentin C328N with two additional glycines and one additional cysteine at the C-terminus (natural protein)
effective binding rate r b,eff (interactions larger than 1 pN per unbound time) [1]: 0.024 s⁻¹
effective binding rate r b,eff (interactions larger than 1 pN per unbound time) [2]: 0.011 s⁻¹
probability of binding p IF-MT per pair of vimentin unit-length filament and tubulin dimer ([2]; scale: per pair of vimentin unit-length filament and tubulin dimer): 0.00061
effective binding rate r b,eff (interactions larger than 1 pN per unbound time) [3]: 0.0056 s⁻¹
effective binding rate r b,eff (interactions larger than 1 pN per unbound time) [4]: 0.013 s⁻¹
effective binding rate r b,eff (interactions larger than 1 pN per unbound time) [5]: 0.016 s⁻¹
